Assay [1] deals with T1, recombinant human interleukin-18 (human, UniProt Q14116 37-193).
T1 construct: Commercially available recombinant human IL-18; also called IL-18; free IL-18
T1 sequence (looked up): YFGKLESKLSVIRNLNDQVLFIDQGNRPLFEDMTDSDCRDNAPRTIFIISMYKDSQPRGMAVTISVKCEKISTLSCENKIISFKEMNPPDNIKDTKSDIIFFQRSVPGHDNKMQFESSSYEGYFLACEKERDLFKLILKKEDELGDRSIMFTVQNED
Description: titration of antibody with a defined IL-18 molarity; KD from EC50 by Law of Mass Action. As for the experimental part:
(§1) The respective KD values of each monoclonal antibody was calculated following titration of the antibodies with a defined IL-18 molarity and derived from the obtained EC₅₀ values with the Law of Mass Action (see above).

The target of assay [2] is T1, recombinant human interleukin-18. The experiment in a line: Luminex, antibody on IL-18 beads. As for the experimental part: Following immunization, B cells were isolated from spleen and hybridized following standard hybridoma technology. […] The screening was performed in 3 sequential and selective steps: [1253] First step. […] [1254] Second step. […] For this, monoclonal antibodies were bound to Luminex beads carrying IL-18. […] [1255] Third step.

The target of assay [3] is T2, IL-18/IL-18BP complex (human, UniProt Q14116 37-193).
T2 construct: Non-covalent 1:1 complex; In the third screening step IL-18BP was linked to Luminex beads and then complexed to IL-18; also called IL-18 previously complexed to IL-18BP; complex IL-18-IL-18BP
T2 sequence 1: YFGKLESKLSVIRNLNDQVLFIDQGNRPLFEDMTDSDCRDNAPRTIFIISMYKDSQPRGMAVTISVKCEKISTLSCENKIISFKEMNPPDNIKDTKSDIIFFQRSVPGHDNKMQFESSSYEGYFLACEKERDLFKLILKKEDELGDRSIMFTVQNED
T2 sequence 2: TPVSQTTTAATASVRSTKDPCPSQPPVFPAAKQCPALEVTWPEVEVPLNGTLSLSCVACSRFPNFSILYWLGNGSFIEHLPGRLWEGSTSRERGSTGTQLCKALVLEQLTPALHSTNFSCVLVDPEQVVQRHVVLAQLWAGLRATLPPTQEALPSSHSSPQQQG
Description: Luminex, third screening against first screening.

Assay [4] addresses T2, IL-18/IL-18BP complex. Description: Luminex, antibody on IL-18 presented by IL-18BP-linked beads.
Assay [5] concerns the target T1, recombinant human interleukin-18. Description: titration of antibody with a defined IL-18 molarity; KD from EC50 by Law of Mass Action; mean. As to the method:
as §1

Assay [6] has the same target. The experiment in a line: Luminex, biotinylated IL-18BP (competitor) on IL-18 beads pre-complexed with the antibody.
For assay [7] the target is unchanged. The experiment in a line: after clone dilution; method not detailed.
For assay [8] the target is unchanged. Description: free IL-18 ELISA (IL-18BP-coated plate); 400 pg/mL IL-18 in PBS/5% BSA spiked with 0-10000 pg/mL IL-18BP. As for the experimental part:
A description of the purification protocol is provided in section 6.6.2. Plates are incubated for a period of time at 4° C. and then stabilized with a blocking buffer containing bovine serum albumin or other appropriate blocking agents. Once the reaction is finished, microplates are sealed and stored at 4° C. until used for detection of free IL-18. Microplates can also be dried in a stabilizing solution allowing storage at room temperature and then be reconstituted by hydration when needed for assay.
In general terms: In an ELISA, binding on a coated surface is turned into a signal by an enzyme label.

For assay [9] the target is unchanged. The experiment in a line: competition in solution: 400 pg/ml IL-18 spiked with rising IL-18BP; remaining free IL-18 detected by ELISA with plate-bound IL-18BP as capture.

We go through six molecules from US20210188968A1 (AB2 BIO, published 2021).

B1: Antibody 132H4 (antibody, V domains shown)
VH: EVKLVESGGGLVKPGGSLKLSCAASGFTFSNYAMSWVRQNPAKRLEWVATISSGGANIYYPDSVKGRFIISRDNARNTLYLQMSSLRSEDTAMYYCARGDYFNHFWFAYWGQGTLVTVSA
VL: DVLMTQTPLSLPVSLGDQASISCRSSQSIVHSNGNTYLEWYLQKPGQSPKFLIYKVSNRFSGVPDRFSGSGSGTDFTLKINRVEAEDLGIYYCFQGSHVPWTFGGGTKLEIK
notes: Mouse hybridoma monoclonal antibody
Take B1: the Kd in [1] and in assay [5] was 5 pM in each case. The results for the Fluorescence intensity in assay [2] and in [4] were 23800 fluorescence intensity and 28 fluorescence intensity, respectively. Further, the “fold inhibition of binding on IL-18 complexed to IL-18BP against binding on IL-18” value (from here on “fold inhibition of binding”) in assay [3] is above 500 fold. In [6], the “Fluorescence intensity of IL-18BP binding” value turned out to be 1490 fluorescence intensity.

B2: Antibody 109A6 (antibody, V domains shown)
VH: EVQLQQSGAELVKPGASVKLSCTASGFKIKDTYIHWVIQRPAQGLEWIGRIDPANGNTIYGSKFQGKATLTADTSSNTAYIHLSSLTSGDSAVYYCAGYVWFAYWGQGTLVTVSA
VL: DVVMTQVPLSLPVSLGDQASISCRSSQRLVHSNGNTYLHWFLQKPGQSPKLLIYTVSNRFSGVPDRFSGSGSGTDFTLKISRVEAEDLGVYFCSQSTLVPWTFGGGTKLEIK
notes: as for B1
On to B2, for which the Kd in [1] and in assay [5] was 10 pM throughout. Moreover, the Fluorescence intensity in assay [2] was determined as 25800 fluorescence intensity; in assay [4], 33 fluorescence intensity. Moreover, the “fold inhibition of binding” value in [3] is above 500 fold. Also, in assay [6], the “Fluorescence intensity of IL-18BP binding” value turned out to be 913 fluorescence intensity.

B3: Antibody 131B4-2 (antibody, V domains shown)
VH: EVQLQQSGAELVKPGASVKLSCTASGFKIKDTYIHWLKQRPEQGLEWIGRIDPANGNTIYGSKFQGKATITADTSSNTAYIQLSSLTSGDTAVYFCAGYVWFAYWGQGTLVTVSA
VL: DAVLTQTPLSLPVSLGDQASISCTSSQSLVHSNGNTYLHWYLQKPGQSPKLLIYKVSDRFSGVPDRFSGSGSGTDFTLMITRVEAEDLGVYFCSQSSLVPWTFGGGTKLEVK
notes: Mouse monoclonal antibody obtained on clone dilution
B3: the binding result in assay [7] is reported as “binds”.

B4: recombinant human IL-18 Binding Protein (r-hIL-18BP), isoform a (other)
chain: TPVSQTTTAATASVRSTKDPCPSQPPVFPAAKQCPALEVTWPEVEVPLNGTLSLSCVACSRFPNFSILYWLGNGSFIEHLPGRLWEGSTSRERGSTGTQLCKALVLEQLTPALHSTNFSCVLVDPEQVVQRHVVLAQLWAGLRATLPPTQEALPSSHSSPQQQG
notes: It was biotinylated in the second screening step and linked to Luminex beads in the third; also called human IL-18BP; IL-18BPa
With B4, the “molar ratio IL-18BP/IL-18 at which free IL-18 is near background” value in [8] is around 15 fold. Further, the “IC50 (read off the curve)” value in [9] was around 2 ng/mL.

B5: Antibody 107C6 (antibody, V domains shown)
VH: QIQLVQSGPELKKPGETVKLSCRASGYTFTNYGMNWVKQAPGKGLKWMGWINTYSGVPTYADDFKGQFAFSLETSAATAFLQINNLKDEDTATYFCAREGYSTTRSMDYWGQGTSVTVSS
VL: DIVMSQSPSSLAVSAGEKVTMSCKSSQSLLDSRTRKNYLVWYQQKPGQSPKLLIYWASTRGSGVPDRFTGSGSGTDFTLTISSVQAEDLAVYYCKQSYNLRTFGGGTKLEIK
notes: Mouse hybridoma monoclonal antibody; also called clone #107C6
Take B5: the Kd in assay [1] and in [5] was below 2 pM throughout. The Fluorescence intensity in assay [2] stood at 26200 fluorescence intensity; in assay [4], 33 fluorescence intensity. The “fold inhibition of binding” value in [3] is above 500 fold. In addition, the “Fluorescence intensity of IL-18BP binding” value in assay [6] was 1390 fluorescence intensity.

B6: Antibody 108F8 (antibody, V domains shown)
VH: QIQLVQSGPDSKKPGETVKLSCRASGYTFTNYGMNWVKQAPGKGLKWMGWINTYSGVPTYADDFKGQFAFSLETSAATAFLQINNLKDEDTATYFCAREGYSTTRSMDYWGQGTSVTVSS
VL: DIVMSQSPSSLAVSAGEKVTMSCKSSQSLLDSRTRKNYLVWYQQKPGQSPKLLIYWASTRGSGVPDRFTGSGSGTDFTLTISSVQAEDLAVYYCKQSYNLRTFGGGTKLEIK
notes: as for B1
In the case of B6, the Kd in assay [1] and in [5] was below 2 pM in each case. Further, the Fluorescence intensity was determined as 25100 fluorescence intensity in assay [2] and 45 fluorescence intensity in assay [4]. Further, the “fold inhibition of binding” value in assay [3] was above 500 fold. Moreover, the “Fluorescence intensity of IL-18BP binding” value in assay [6] was 1290 fluorescence intensity.

In general, Kd refers to the free concentration of one partner at which half of the binding sites on the other are occupied at equilibrium, for simple one-to-one binding.
